Test results reported in patent WO2008121160A2 (dated 2008).

Target: T1, CD5-His-GST (human, UniProt P06127 25-372)
T1 construct: Expressed in 293T cells, purified by nickel chromatography; also called Recombinant CD5; Tagged CD5 antigen; not shown: C-terminal Factor Xa site; 6X His tag; GST protein
T1 sequence: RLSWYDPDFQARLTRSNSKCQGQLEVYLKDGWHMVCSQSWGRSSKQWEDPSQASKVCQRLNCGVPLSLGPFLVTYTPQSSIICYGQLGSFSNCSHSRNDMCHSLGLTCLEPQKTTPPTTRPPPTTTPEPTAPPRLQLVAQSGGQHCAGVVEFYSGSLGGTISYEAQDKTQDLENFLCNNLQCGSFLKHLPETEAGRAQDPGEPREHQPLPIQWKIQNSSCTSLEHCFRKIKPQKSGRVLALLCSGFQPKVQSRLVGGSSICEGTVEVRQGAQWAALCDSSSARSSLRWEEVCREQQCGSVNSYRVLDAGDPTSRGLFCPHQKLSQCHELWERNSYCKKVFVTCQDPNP
Test: Biacore (SPR), global Langmuir fits

B1: 5D7_H0L0_IgG1_WT (antibody, V domains shown)
VH: QVTLKESGPGILKPSQTLSLTCSFSGFSLSTSGMGVGWIRQPSGKGLEWLAHIWWDDDVYYNPSLKNQLTISKDASRDQVFLKITNLDTADTATYYCVRRRATGTGFDYWGQGTTLTVSS
VL: NIVMTQSHKFMSTSVGDRVSIACKASQDVGTAVAWYQQKPGQSPKLLIYWTSTRHTGVPDRFTGSGSGTDFTLTITNVQSEDLADYFCHQYNSYNTFGSGTRLELKR
notes: also called chimeric 5D7; H0L0 5D7
Kd: ~1.5 nM
